From the nanobody polyreactivity screen of Harvey et al. (2022)

Assay: yeast display, Sf9 membrane polyspecificity reagent, FACS + sequencing; frameworks hold sequencing errors
Outline: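 Nanobodies came from a synthetic yeast display library in Saccharomyces cerevisiae BJ5465, induced with galactose for 36–48 hours and stained for 1 hour at 4 °C with 10% biotinylated, detergent-solubilized Sf9 membrane reagent. Cells were enriched on streptavidin microbeads and then FACS-sorted, with low and high (top ~1%) gates set on anti-HA fluorescence for expression and streptavidin fluorescence for reagent binding. Each polyreactivity label reflects the gate a clone came from. Genes were amplified by colony PCR, sequenced by MiSeq 2 × 250 and filtered by CDR length.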

Sequence | polyreactivity (PSR sort gate)
QVQLVESGGGLVQAGGSRRLSCAASGSIFIPYVMGWYRQAPGKERELVAVITSGGDTYYADSVKGRFTISRDNAKNTVYLQMNSLKPEDTAVYYCNATFWYPPWWYEYDYWGQGTQVTVSS | low polyreactivity
QVQLVESGGGLVQAGGSRRLSCAASGSIFYYNTMGWSRQAPGKERELVAAMRFDDGSTYYADSVKGRFTISRDNAKYTVYLQMNSLKPEDTAVYYCSADWIVVSEFGLDYHMDYWGQGNQVTVSS | low polyreactivity
QVQLVESGGGLVQAGGSRRLSCAASGSTFRANAMGWYRQAPGKERELVAAITSSGGSTYYADSVKGRFTISRDNAKNTVYLQMNSLKPEDTAVYYCAAYPRPYIGYTDGYVWYEFDYWGQGTQVTVSS | low polyreactivity
QVQLVESGGGLVQAGGSRRLSCADSGSIFDQYTMGWSRQAPGKEWELVAGISSGGITNYADSVKGRFTLSRDNAKNTVYLQMTSLKPEDTAVYYCPADNWDLAEYDYWGQGPQVTVSS | low polyreactivity
QVQLVESGGGLVQAGGSRRLTCAASGSTFTQYPMGWYRQAPGKERELVAGISWGGSSTYYADSVKGRFTISRDNAKNTVYLEMNSLKPEDSEVYYCASAVWREYGYYFVYWDYSWGQGTQGTVSS | low polyreactivity
QVQLVESGGGLVQAGGSRSLSCAASGSIFLVNAMGWYRQAPGKERELVAAINSGGSTYYADSVKGRFTISRDNAKNTVYLQMNSLKPEDTAVYYCAADFWLKVWQDTDYDYDYWGQGTQVTVSS | low polyreactivity
QVQLVESGGGLVQAGGSVRLSCAASGRTSAWYAMGWYRQAPVKERELVADISGSADSTYYADSVKGRFTISRDNAKYTVYVQMHSLKPEDTAVYYRATSISTPTGDPFDYWGQRTQVTVSS | low polyreactivity
QVQLVESGGGLVQAGGSVRLSCAASGSIFGYYALGWYRQAPGTERELVAAISSGGSTKYADSVKGRFTISRDNAKNTVYLQMNSLKPEDTAVYYCATRIRSGSYPYPRYDYWGQGTQVTVSS | high polyreactivity
QVQLVESGGGLVQAGGSVRLSCAASGSTFYHYALGWYRQAPGKERELVAAISWYGGSTYYADSVKGRFTISRDNAKNTVYLQMNSLKPEDTAVYYCAARGRARQRTSFEYWGQGTQVTVSS | high polyreactivity
QVQLVESGGGLVQAGGTLPLSCAASGYTISRNAKGWYRQAPGKARELDAAISRGGRTNYADSVKGRFTISRDNAKNSVYLHLNSLKPEDTAVYYCAANSTTGLRSPRGAGGHDYWGQGTQVTVSS | high polyreactivity
QVQLVESGGGLVQAGGTLRISCAASGSTAYVMGWYRQAPGKEMELVAAISKSGGSTYYADSVKGRFTISRDNAKNTVYLQMNSLKPEDTAVYYCAALYPTTTAYRYGYWGQGTQVTVSS | high polyreactivity
QVQLVESGGGLVQAGGTLRLICAASGFTISKYAMGWYRQAPGKERELVAVISSGGLTNYADSVKGRFTISRDNAKNTVYLQMNSLKPEDSEVYYCAAIGWRTRSRFVYWGQGTQVTVAS | high polyreactivity
QVQLVESGGGLVQAGGTLRLSCAASGFIFGYNAMGWYRQAPGKERELVARINSGGNTNYADSVKGLFSISRDNAKNTVYLLMNSLKPEDTAVYYCARDASNRYDYWRQGTQVTVSS | low polyreactivity
QVQLVESGGGLVQAGGTLRLSCAASGFIFTRYAMGWYSQAPGKERELVAAIKLSGTSTYYADSVKGRFTISRDNAKYTVYLQMNSLKPEDSAVYYCAATSSYIYPYGYWGQGTQVTVSS | high polyreactivity
QVQLVESGGGLVQAGGTLRLSCAASGFTFGFYAMGWYRQAPGKERELVAAITWSGGSTYYADSVKGRFTISRDNAKNTVYLQMNSLKPEDTAVYYCNAYTYGSEFDYWGQGTQVTVSS | high polyreactivity
QVQLVESGGGLVQAGGTLRLSCAASGFTFTSNAMGWYRQEPGKERELVAAITSSGGITYYADSVKGRFTISRDNAKNTVYLQMNSLKPEDNAVYYCAASISSYNSPGYGYWGQGTQVTVSS | low polyreactivity
QVQLVESGGGLVQAGGTLRLSCAASGFTFYSNTMGWYRQAPGKERELFAAITRTGVSTYYADSVKGRFTISRDNAKNTVYLQMNSLKPEDTAVYYCAALVKGQGTVHRYYYLGQGTQVTVSS | high polyreactivity
QVQLVESGGGLVQAGGTLRLSCAASGGTFATYAMGWCRQGPGKERELVAAITQSGGTTYYADSVKRRFTISRDNANNTVYLQMNSLKPEDTAVYYCNAEASQAVYYAYEYWGQGTQVTVSS | low polyreactivity
QVQLVESGGGLVQAGGTLRLSCAASGIIFVWNAMGWYRQAPGKERELVAAITNGGSTYYADSVKGRFTISRDNAKNTVYLQMNSLKPEDTAVYYCNVRYFFRFRDDYWGQGTQVTVSS | low polyreactivity
QVQLVESGGGLVQAGGTLRLSCAASGIIFYYYAMGWYRQAPGKERELVAAITGTGSRTYYADSVKGRFTISRDNAKNTVYLQMNSLKPEDTADYYCNARSFATGSKVPARGYWGQGTQVTVSS | high polyreactivity
QVQLVESGGGLVQAGGTLRLSCAASGITFHRYDMGWYRQAPGKERELVADITWSGGSTYYADSVKGRFTISRDNAKNTVYLQMNSLKPEDTAVYYCAADASTYTYTPYDNWGQGTQVTVSS | low polyreactivity
QVQLVESGGGLVQAGGTLRLSCAASGRIFSRYVMGWYRQAPGKQRELVASISWSGGSTRYADSVKGRFTISRDNAKNTVYVQMNSLKPEDTAVYYCAARFILSKYGSGVRYNYWGQGTQVTVSS | high polyreactivity

Sequence | polyreactivity (PSR sort gate)
QVQLVESGGGLVQAGGTLRLSCAASGRISAFNAMGWYRQAPGKERELVAAIHVSGGNTYYADSVKGRFTISRDNAKNTVYLQMNSLKPEDTAVYYCAAERRRWGVDYYYWGQGTQVTVST | high polyreactivity
QVQLVESGGGLVQAGGTLRLSCAASGRISTHNAMGWYRQAPGKERELVAAITSGGRTTYADSVKGRFTISRDNAKNTVYLLMNSLKPEDTAVYYCNADTGLGSLDFDKRDYWGQGTQVTVSS | low polyreactivity
QVQLVESGGGLVQAGGTLRLSCAASGRTFAYNAMGWYRQAPGKERELVAAITWSGDSTYYADSVKGRFTISRDNAKKTVYLQRNSLKPEDTAVYYCAADYFGGPSYEFDYWGQGTQVTVSS | low polyreactivity
QVQLVESGGGLVQAGGTLRLSCAASGRTFNTYAMGWYRQAPGKERELVAAISSGGRTYYADSVKGRFTISRDNAMLTVYLQMNSLKPEDTAVYYCAAKRFQYRTLYEFWGLGTQVTVSS | high polyreactivity
QVQLVESGGGLVQAGGTLRLSCAASGRTFYFYAMGWYRQAPGKERELVAAITSRVGRTYYADSVKGRFTISRDNAKNTVYLQMNSLKPEDTAVYYCAAEGVYRMGYWGQGTQVTVSS | high polyreactivity
QVQLVESGGGLVQAGGTLRLSCAASGRTIKQNAMGWYRQAPGKERELVATIRNGGNTNYADSVKGRFTISRDNAKNNVYLQMNSLKPEDTAVYYCAAARSPYKYSYWGQGTQVTVSS | high polyreactivity
QVQLVESGGGLVQAGGTLRLSCAASGRTYYGYAMGWYRQATGKERQLVAAIRSTTGSTYYADSVKGRFTISRDNAKITVYLQMNSLKPEDTAVYYCASAYPFYADMDYWGQGTQVTVSS | low polyreactivity
QVQLVESGGGLVQAGGTLRLSCAASGSIFPRYGMGWYRHAPGKERELVAAISGSGGSTYYADSVKGRFTISRDNAKNTVYLQMNSLKPEDTAVYYCNKLRRRVNRDIDDYWGQRTQVTVSS | high polyreactivity
QVQLVESGGGLVQAGGTLRLSCAASGSIFTYNAMGWYRQAPGKERELVAAITRSGGRTYYADSVKGRFTISRDNAKNTVYLQMNSLKPEDNAVYYCNTLRVGWGQGTQVTVSS | high polyreactivity
QVQLVESGGGLVQAGGTLRLSCAASGSIFWSYAMGWYRQAPGKEREFVASITGSGGTTTYADSVKGRFTISRDNAKNTVYLQMISLKPEDTAVYYCNARLHGWYHVYYIYDYWGQGTQVTVSS | low polyreactivity
QVQLVESGGGLVQAGGTLRLSCAASGSTFAANAMGCSRQAPGKERELVAGISESGDRTYADSVKGRFTISRDNAKNTVYLQMNSQKPEETAVYYCNVGANVYLLYFPSRGGVYDYGYWGHGTQVTVSS | low polyreactivity
QVQLVESGGGLVQAGGTLRLSCAASGSTFLTNAMGWNRPAPGKERELVAAIRTSGGSTYYADSVKGRFTISRDNAKNTFYVLMNSLKPEDTAVYYCAASYLRRRFSEYYYWGQGTQVTVSS | high polyreactivity
QVQLVESGGGLVQAGGTLRLSCAASGSTFNEYAMGWYRQAPGKERELVAAIDERGGNTYYADSVKGRFTISRDNAKNTVYLQMNSLKPEDTAVYYCAADAYPYYQSYYPFEYWGQGTQVTVSS | low polyreactivity
QVQLVESGGGLVQAGGTLRLSCAASGSTFRRYAMGWYRHAPVKERELVAAISGRGGSTSYADSVKGRFTISRDNAKNTVYLQMNSLKPEDTAVYYCAADDKYFYPGNGYWGQGTQVTVSS | high polyreactivity
QVQLVESGGGLVQAGGTLRLSCAASGSTFSVNAMGWYRQAPGKERELVASITTSGGSTNYADSVKGRFTISRDNAKNTVYLQMNSLKPEDTAVYYCNDDTPGSSPSDYNYWGQGTQVTVSS | low polyreactivity
QVQLVESGGGLVQAGGTLRLSCADSGLTFAKYAMGWYRQAPGKERQLVAAISRSGGSTYYADSVKGRFTISRDNAKNTVYLQINSLKPEDTARFYCPKSSGTLWITKYDYWGQGTQVTVSS | low polyreactivity
QVQLVESGGGLVQAGGTLRLSCAPSGRIFKTYAMGWYRQAPGKERELVAAITNNGGSTYYADSVKGRFTISRDNAKNTVYLLMNSLKPEDTAVYYCAVYVKYHYPVVTTGYDYWGQGTQVTVSS | high polyreactivity
QVQLVESGGGLVQAGGTLRLSCDASGRTFGYNAMGWYRQAPGKAREFDAAITWSGGSTYYADSVKGRFTISRDNAKNTVYLQMNSLKPEDTAVYYCAADLGRPLHGVAYGYWGQGTQVTVSS | low polyreactivity
QVQLVESGGGLVQAGGTLRLSSAASGFTFGNYAMGWYRQAPGKERELVAAISGRSGRTYYADSVKGRFTISRDNAKNTVYLQMISLKPEVTAVYYCAKKVFGWEYYYWGQGTQVTVSS | high polyreactivity
QVQLVESGGGLVQAGGTLRLTCAASGRIFNSNDMRWYRQAPGKERELVASISPNTGTTYYADSVKGRFTISRDNAKNTVYLQMNSLKPEDTAVYYCAARGVYYQDGLVTGEAEYGYWGQGTQVTVSS | low polyreactivity
QVQLVESGGGLVQAGRSHRLSCAASGRTFKPYAMGWYRPAPGKERELVARISGSGGSTYYADSVKGRFTISRDYAKNTVYLQMNSLNPEDIAVYYCATTPYYWFDYWGQGRQVTVSS | low polyreactivity
